Test results as given in patent publication US20240415888A1 (Memorial Sloan Kettering, published 2024).

B1: M22/CD3 T-BsAb (anti-TSHR x anti-CD3 bispecific antibody, IgG-[L]-scFv 2+2 format) (bispecific antibody)
light: LTVLTQPPSVSGAPRQRVTISCSGNSSNIGNNAVNWYQQLPGKAPKLLIYYDDQLPSGVSDRFSGSRSGTSASLAIRGLQSEDEADYYCTSWDDSLDSQLFGGGTRLTVLGQPKAAPSVTLFPPSSEELQANKATLVCLISDFYPGAVTVAWKADSSPVKAGVETTTPSKQSNNKYAASSYLSLTPEQWKSHRSYSCQVTHEGSTVEKTVAPTECTSGGGGSGGGGSGGGGSQVQLVQSGGGVVQPGRSLRLSCKASGYTFTRYTMHWVRQAPGKCLEWIGYINPSRGYTNYNQKFKDRFTISRDNSKNTAFLQMDSLRPEDTGVYFCARYYDDHYSLDYWGQGTPVTVSSGGGGSGGGGSGGGGSGGGGSGGGGSGGGGSDIQMTQSPSSLSASVGDRVTITCSASSSVSYMNWYQQTPGKAPKRWIYDTSKLASGVPSRFSGSGSGTDYTFTISSLQPEDIATYYCQQWSSNPFTFGCGTKLQITR
heavy: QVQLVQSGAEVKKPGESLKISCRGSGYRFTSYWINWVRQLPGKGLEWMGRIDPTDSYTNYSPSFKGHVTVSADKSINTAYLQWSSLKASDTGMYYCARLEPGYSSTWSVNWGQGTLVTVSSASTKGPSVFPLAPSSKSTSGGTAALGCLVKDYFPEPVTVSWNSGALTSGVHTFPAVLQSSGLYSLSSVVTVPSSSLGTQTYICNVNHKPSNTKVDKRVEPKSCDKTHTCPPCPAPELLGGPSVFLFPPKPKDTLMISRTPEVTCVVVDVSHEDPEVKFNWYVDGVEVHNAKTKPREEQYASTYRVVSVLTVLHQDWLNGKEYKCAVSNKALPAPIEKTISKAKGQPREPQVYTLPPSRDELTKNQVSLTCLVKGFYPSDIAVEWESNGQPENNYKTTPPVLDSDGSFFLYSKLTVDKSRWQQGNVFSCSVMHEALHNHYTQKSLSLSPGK
notes: Expressed in Expi-CHO cells and purified on protein A; also called M22/CD3 BsAb; M22-TSHR/CD3
B2: K1-70/CD3 T-BsAb (anti-TSHR x anti-CD3 bispecific antibody, IgG-[L]-scFv 2+2 format) (bispecific antibody)
light: QSVLTQPPSVSAAPGQKVTISCSGSSSDIGSNYVSWYQQFPGTAPKLLIYDNNKRPSAIPDRFSGSKSGTSATLGITGLQTGDEADYYCGTWDSRLGIAVFGGGTQLTVLGQPKAAPSVTLFPPSSEELQANKATLVCLISDFYPGAVTVAWKADSSPVKAGVETTTPSKQSNNKYAASSYLSLTPEQWKSHRSYSCQVTHEGSTVEKTVAPTECTSGGGGSGGGGSGGGGSQVQLVQSGGGVVQPGRSLRLSCKASGYTFTRYTMHWVRQAPGKCLEWIGYINPSRGYTNYNQKFKDRFTISRDNSKNTAFLQMDSLRPEDTGVYFCARYYDDHYSLDYWGQGTPVTVSSGGGGSGGGGSGGGGSGGGGSGGGGSGGGGSDIQMTQSPSSLSASVGDRVTITCSASSSVSYMNWYQQTPGKAPKRWIYDTSKLASGVPSRFSGSGSGTDYTFTISSLQPEDIATYYCQQWSSNPFTFGCGTKLQITR
heavy: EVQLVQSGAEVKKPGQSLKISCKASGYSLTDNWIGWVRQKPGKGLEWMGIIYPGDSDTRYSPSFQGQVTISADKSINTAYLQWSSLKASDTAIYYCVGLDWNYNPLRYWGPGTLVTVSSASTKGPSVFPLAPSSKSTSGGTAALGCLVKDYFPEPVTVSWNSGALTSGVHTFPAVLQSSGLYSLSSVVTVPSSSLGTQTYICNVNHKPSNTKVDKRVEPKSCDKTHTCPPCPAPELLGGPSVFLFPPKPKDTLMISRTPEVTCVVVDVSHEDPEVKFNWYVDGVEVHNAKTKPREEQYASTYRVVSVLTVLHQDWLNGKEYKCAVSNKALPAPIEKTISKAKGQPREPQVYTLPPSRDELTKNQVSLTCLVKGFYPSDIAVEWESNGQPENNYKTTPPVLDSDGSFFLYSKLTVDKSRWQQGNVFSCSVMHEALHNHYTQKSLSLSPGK
notes: also called K1-70/CD3 BsAb; K1-70-TSHR/CD3

Target: T1, human Thyroid Stimulating Hormone Receptor (TSHR), expressed on transfected or transduced cells (human, UniProt P16473 21-764)
T1 construct: also called Hu-TSHR; human TSHR
Test: flow cytometry on HEK-293T cells transfected with TSHR expression vectors
Procedure: Flow Cytometry. Flow cytometry was performed to assess specific binding of TSHR and HER2 bispecific antibodies or to quantify their membrane expression. […] For flow analysis cells were harvested using 0.02% EDTA in phosphate-buffered saline (PBS). […] After washing, cells were captured using a BD LSRFortessa (BD Biosciences). Cells stained with DAPI (1 μg/mL) were excluded. Cytometric analysis was performed using FlowJo (V10.6; FlowJo) to obtain median fluorescence intensity (MFI) or to quantify molecules per cell using QuantiBRITE PE reference beads (BD Biosciences).

Row | Binder | binding result
1 | B1 | binds
2 | B2 | binds
